# Reference: patent publication US20130012432A1 (Novo Nordisk, published 2013)
# Positions of bridges follow the written chain, without caps; N, C: chain ends. Non-standard residues stand in square brackets, D forms with d. Groups on a side chain read outwards from the residue. Primed or numbered codes have the meaning given here. *: point of attachment. X2 = (2-(2-(16-(tetrazol-5-yl)hexadecanoylamino)ethoxy)ethoxy)acetyl, O=C(CCCCCCCCCCCCCCCc1nn[nH]n1)NCCOCCOCC(=O)*; X5 = NH(2-(2-(2-(17-carboxyheptadecanoylamino)ethoxy)ethoxy)ethyl), O=C(O)CCCCCCCCCCCCCCCCC(=O)NCCOCCOCCN*; X6 = (2-(2-(17-carboxyheptadecanoylamino)ethoxy)ethoxy)acetyl, O=C(O)CCCCCCCCCCCCCCCCC(=O)NCCOCCOCC(=O)*; X3 = (2-(2-(15-carboxypentadecanoylamino)ethoxy)ethoxy)acetyl, O=C(O)CCCCCCCCCCCCCCC(=O)NCCOCCOCC(=O)*; X4 = (2-(2-(16-carboxyhexadecanoylamino)ethoxy)ethoxy)acetyl, O=C(O)CCCCCCCCCCCCCCCC(=O)NCCOCCOCC(=O)*; biscarboxymethyl = Lys(biscarboxymethyl) = Nepsilon-bis(carboxymethyl)-L-lysine; biscarboxymethyl(4) = Lys(biscarboxymethyl) = N6-bis(carboxymethyl)-L-lysine; bis(carboxymethyl) = Lys(biscarboxymethyl) = N6-bis(carboxymethyl)-L-lysine; Palmitoyl(16-(5-tetrazolyl)) = O=C(CCCCCCCCCCCCCCCc1nnn[nH]1)*; biscarboxymethyl(3) = Nepsilon-bis(carboxymethyl) on Lys; biscarboxymethyl″ = N6-bis(carboxymethyl) on L-lysine; Lys(CH2CO2H)2 = N[C@@H](CCCCN(CC(=O)O)CC(=O)O)C(=O)O; C18 diacid = O=C(O)CCCCCCCCCCCCCCCCC(=O)*; C16 diacid = O=C(O)CCCCCCCCCCCCCCC(=O)*; Hyp = O=C(O)[C@@H]1C[C@@H](O)CN1; NTA = O=C(O)CN(CC(=O)O)CC(=O)*; hCys = N[C@@H](CCS)C(=O)O; Orn = NCCC[C@H](N)C(=O)O; Dab = NCC[C@H](N)C(=O)O; Dap = NC[C@H](N)C(=O)O; AEEA = NCCOCCOCC(=O)O
# B1: Ac-c[Asp-His-D-Phe-Arg-Trp-Lys]-Pro-Pro-Arg-Asp-Lys(biscarboxymethyl)-Lys[(2-{2-[16-(tetrazol-5-yl)hexadecanoylamino]ethoxy}ethoxy)acetyl]-NH2 (peptide)
# peptide: Ac-DH[dF]RWKPPRD[Lys(CH2CO2H)2]K([AEEA-Palmitoyl(16-(5-tetrazolyl))])-NH2
# modifications: lactam 1-6
# SMILES: CC(=O)N[C@H]1CC(=O)NCCCC[C@@H](C(=O)N2CCC[C@H]2C(=O)N2CCC[C@H]2C(=O)N[C@@H](CCCNC(=N)N)C(=O)N[C@@H](CC(=O)O)C(=O)N[C@@H](CCCCN(CC(=O)O)CC(=O)O)C(=O)N[C@@H](CCCCNC(=O)COCCOCCNC(=O)CCCCCCCCCCCCCCCc2nnn[nH]2)C(N)=O)NC(=O)[C@H](Cc2c[nH]c3ccccc23)NC(=O)[C@H](CCCNC(=N)N)NC(=O)[C@@H](Cc2ccccc2)NC(=O)[C@H](Cc2c[nH]cn2)NC1=O
# B2: Ac-c[Asp-His-D-Phe-Arg-Trp-Dap]-Pro-Pro-Arg-Asp-Lys(BCMA)-Lys[(2-{2-[16-(tetrazol-5-yl)hexadecanoylamino]ethoxy}ethoxy)acetyl]-NH2 (peptide)
# peptide: Ac-DH[dF]RW[Dap]PPRDK(NTA)K(X2)-NH2
# modifications: lactam 1-6
# SMILES: CC(=O)N[C@H]1CC(=O)NC[C@@H](C(=O)N2CCC[C@H]2C(=O)N2CCC[C@H]2C(=O)N[C@@H](CCCNC(=N)N)C(=O)N[C@@H](CC(=O)O)C(=O)N[C@@H](CCCCNC(=O)CN(CC(=O)O)CC(=O)O)C(=O)N[C@@H](CCCCNC(=O)COCCOCCNC(=O)CCCCCCCCCCCCCCCc2nn[nH]n2)C(N)=O)NC(=O)[C@H](Cc2c[nH]c3ccccc23)NC(=O)[C@H](CCCNC(=N)N)NC(=O)[C@@H](Cc2ccccc2)NC(=O)[C@H](Cc2c[nH]cn2)NC1=O
# B3: Ac-c[Cys-Glu-His-D-Phe-Arg-Trp-Gly-Cys]-Pro-Pro-Lys-Glu-Glu-Lys({2-[2-(15-carboxypentadecanoylamino)ethoxy]ethoxy}acetyl)-NH2 (peptide)
# peptide: Ac-CEH[dF]RWGCPPKEEK([AEEA-C16 diacid])-NH2
# modifications: disulfide 1-8
# SMILES: CC(=O)N[C@H]1CSSC[C@@H](C(=O)N2CCC[C@H]2C(=O)N2CCC[C@H]2C(=O)N[C@@H](CCCCN)C(=O)N[C@@H](CCC(=O)O)C(=O)N[C@@H](CCC(=O)O)C(=O)N[C@@H](CCCCNC(=O)COCCOCCNC(=O)CCCCCCCCCCCCCCC(=O)O)C(N)=O)NC(=O)CNC(=O)[C@H](Cc2c[nH]c3ccccc23)NC(=O)[C@H](CCCNC(=N)N)NC(=O)[C@@H](Cc2ccccc2)NC(=O)[C@H](Cc2c[nH]cn2)NC(=O)[C@H](CCC(=O)O)NC1=O
# B4: Ac-c[homoCys-His-D-Phe-Arg-Trp-Cys]-Pro-Pro-Lys-Asp-Dap(BCMA)-Lys[(2-{2-[16-(tetrazol-5-yl)hexadecanoylamino]ethoxy}ethoxy)acetyl]-NH2 (peptide)
# peptide: Ac-[hCys]H[dF]RWCPPKD[Dap](NTA)K([AEEA-Palmitoyl(16-(5-tetrazolyl))])-NH2
# modifications: disulfide 1-6
# SMILES: CC(=O)N[C@H]1CCSSC[C@@H](C(=O)N2CCC[C@H]2C(=O)N2CCC[C@H]2C(=O)N[C@@H](CCCCN)C(=O)N[C@@H](CC(=O)O)C(=O)N[C@@H](CNC(=O)CN(CC(=O)O)CC(=O)O)C(=O)N[C@@H](CCCCNC(=O)COCCOCCNC(=O)CCCCCCCCCCCCCCCc2nnn[nH]2)C(N)=O)NC(=O)[C@H](Cc2c[nH]c3ccccc23)NC(=O)[C@H](CCCNC(=N)N)NC(=O)[C@@H](Cc2ccccc2)NC(=O)[C@H](Cc2c[nH]cn2)NC1=O
# B5: Ac-c[homoCys-His-D-Phe-Arg-Trp-Cys]-Pro-Pro-Lys-Glu-Dap(BCMA)-Lys[(2-{2-[16-(tetrazol-5-yl)hexadecanoylamino]ethoxy}ethoxy)acetyl]-NH2 (peptide)
# peptide: Ac-[hCys]H[dF]RWCPPKE[Dap](NTA)K([AEEA-Palmitoyl(16-(5-tetrazolyl))])-NH2
# modifications: disulfide 1-6
# SMILES: CC(=O)N[C@H]1CCSSC[C@@H](C(=O)N2CCC[C@H]2C(=O)N2CCC[C@H]2C(=O)N[C@@H](CCCCN)C(=O)N[C@@H](CCC(=O)O)C(=O)N[C@@H](CNC(=O)CN(CC(=O)O)CC(=O)O)C(=O)N[C@@H](CCCCNC(=O)COCCOCCNC(=O)CCCCCCCCCCCCCCCc2nnn[nH]2)C(N)=O)NC(=O)[C@H](Cc2c[nH]c3ccccc23)NC(=O)[C@H](CCCNC(=N)N)NC(=O)[C@@H](Cc2ccccc2)NC(=O)[C@H](Cc2c[nH]cn2)NC1=O
# B6: Ac-c[Dap-His-D-Phe-Arg-Trp-Asp]-Pro-Pro-Arg-Asp-Lys(BCMA)-Lys[(2-{2-[16-(tetrazol-5-yl)hexadecanoylamino]ethoxy}ethoxy)acetyl]-NH2 (peptide)
# peptide: Ac-[Dap]H[dF]RWDPPRDK(NTA)K([AEEA-Palmitoyl(16-(5-tetrazolyl))])-NH2
# modifications: lactam 1-6
# SMILES: CC(=O)N[C@H]1CNC(=O)C[C@@H](C(=O)N2CCC[C@H]2C(=O)N2CCC[C@H]2C(=O)N[C@@H](CCCNC(=N)N)C(=O)N[C@@H](CC(=O)O)C(=O)N[C@@H](CCCCNC(=O)CN(CC(=O)O)CC(=O)O)C(=O)N[C@@H](CCCCNC(=O)COCCOCCNC(=O)CCCCCCCCCCCCCCCc2nnn[nH]2)C(N)=O)NC(=O)[C@H](Cc2c[nH]c3ccccc23)NC(=O)[C@H](CCCNC(=N)N)NC(=O)[C@@H](Cc2ccccc2)NC(=O)[C@H](Cc2c[nH]cn2)NC1=O
# Molecular target: T1, MC1 receptor (UniProt Q01726 1-317, limits assumed)
# T1 construct: whole, on cells; also called melanocortin receptor subtype 1; melanocortin receptor 1
# T1 sequence (Q01726 whole entry): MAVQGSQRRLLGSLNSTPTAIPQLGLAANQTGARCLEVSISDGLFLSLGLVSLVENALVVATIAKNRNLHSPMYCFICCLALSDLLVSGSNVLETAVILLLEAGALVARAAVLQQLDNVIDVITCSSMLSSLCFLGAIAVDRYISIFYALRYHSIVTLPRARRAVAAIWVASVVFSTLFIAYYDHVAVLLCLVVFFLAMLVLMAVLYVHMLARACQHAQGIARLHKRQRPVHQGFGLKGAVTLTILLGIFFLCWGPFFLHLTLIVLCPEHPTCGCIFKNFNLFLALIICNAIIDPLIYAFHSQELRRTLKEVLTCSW
# Assay: 125I-NDP-α-MSH displacement, BHK-MC1 membranes (Assay IV);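 further: membrane incubations stopped by filtration, retained radioactivity counted, Ki fitted by nonlinear regression to binding curves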
row,Binder,Ki [nM]
1,Ac-EH[dF]RW[Orn][Hyp][Hyp]RDK(biscarboxymethyl)K(X2)-NH2 (lactam 1-6),7230
2,B1,279
3,Ac-[Orn]H[dF]RWDPPHEK(biscarboxymethyl)K(X6)-NH2 (lactam 1-6),7370
4,Ac-DH[dF]RW[Dab]PPRDK(biscarboxymethyl(4))K(X2)-NH2 (lactam 1-6),5140
5,Ac-EH[dF]RW[Orn]PPHDK(biscarboxymethyl)K(X2)-NH2 (lactam 1-6),5170
6,B2,7980
7,Ac-DH[dF]RW[Orn]PPRDK(biscarboxymethyl(3))K([AEEA-Palmitoyl(16-(5-tetrazolyl))])-NH2 (lactam 1-6),2540
8,B3,7220
9,Ac-EH[dF]RW[Orn]PPRDK(biscarboxymethyl)K(X6)-NH2 (lactam 1-6),4690
10,Ac-[hCys]H[dF]RWCSPHEK(bis(carboxymethyl))K([AEEA-C18 diacid])-NH2 (disulfide 1-6),442
11,Ac-[hCys]S[dF]RWCPPKEK(biscarboxymethyl″)K(X2)-NH2 (disulfide 1-6),2060
12,Ac-[hCys]H[dF]RWCSPKEK(bis(carboxymethyl))K([AEEA-C16 diacid])-NH2 (disulfide 1-6),169
13,B4,7540
14,Ac-EH[dF]RW[Orn]PPRDK(biscarboxymethyl)K(X2)-NH2 (lactam 1-6),5240
15,Ac-[Orn]H[dF]RWDPSSSK(biscarboxymethyl)SSK(X3)-NH2 (lactam 1-6),3890
16,Ac-[Dab]H[dF]RWDPSSSK(biscarboxymethyl(3))SS-X5 (lactam 1-6),9130
17,B5,177
18,Ac-[Orn]H[dF]RWDPSSSK(bis(carboxymethyl))SSK([AEEA-C18 diacid])-NH2 (lactam 1-6),141
19,Ac-[Orn]H[dF]RWDPSSSK(bis(carboxymethyl))SSK([AEEA-Palmitoyl(16-(5-tetrazolyl))])-NH2 (lactam 1-6),5610
20,Ac-[Orn]H[dF]RWDPPREK(biscarboxymethyl)K(X6)-NH2 (lactam 1-6),1940
21,Ac-EH[dF]RW[Orn]PPRDK(biscarboxymethyl)K(X3)-NH2 (lactam 1-6),3970
22,Ac-EH[dF]RW[Orn][dP][dP]RDK(biscarboxymethyl(3))K([AEEA-Palmitoyl(16-(5-tetrazolyl))])-NH2 (lactam 1-6),8840
23,Ac-[Orn]H[dF]RWDPPREK(biscarboxymethyl)K(X2)-NH2 (lactam 1-6),2770
24,Ac-[Orn]H[dF]RWEPPRDK(bis(carboxymethyl))K([AEEA-Palmitoyl(16-(5-tetrazolyl))])-NH2 (lactam 1-6),433
25,Ac-[Orn]H[dF]RWDPPHEK(biscarboxymethyl)K(X4)-NH2 (lactam 1-6),4830
26,Ac-[Dab]H[dF]RWDPPRDK(biscarboxymethyl(3))K([AEEA-Palmitoyl(16-(5-tetrazolyl))])-NH2 (lactam 1-6),5740
27,B6,5550
28,Ac-EH[dF]RW[Dab]PPRDK(biscarboxymethyl(3))K([AEEA-Palmitoyl(16-(5-tetrazolyl))])-NH2 (lactam 1-6),3420

# Molecular target: T2, human MC4 receptor (human, UniProt P32245 1-332)
# T2 construct: whole, on cells; Assayed as membranes of BHK cells stably expressing the receptor; also called melanocortin receptor subtype 4; melanocortin receptor 4
# T2 sequence (P32245 whole entry): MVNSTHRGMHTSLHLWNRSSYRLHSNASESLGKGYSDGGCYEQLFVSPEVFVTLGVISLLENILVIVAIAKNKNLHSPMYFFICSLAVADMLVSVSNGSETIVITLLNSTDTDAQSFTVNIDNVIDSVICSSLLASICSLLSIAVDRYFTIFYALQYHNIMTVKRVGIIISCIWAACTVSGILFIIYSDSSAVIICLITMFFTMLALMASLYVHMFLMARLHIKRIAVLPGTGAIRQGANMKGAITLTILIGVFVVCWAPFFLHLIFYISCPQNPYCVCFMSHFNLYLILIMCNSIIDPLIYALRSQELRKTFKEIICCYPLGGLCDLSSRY
# Assay: 125I-NDP-α-MSH displacement, BHK-human MC4 membranes (Assay V);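 further: Filter-retained radioactivity read by gamma counting, with affinity obtained through non-linear regression fitting of the binding curves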
# Experimental: The membranes were prepared from frozen or fresh cells that were homogenized in 20 mM HEPES pH 7.1, 5 mM MgCl₂ and 1 mg/ml bacitracin and centrifuged at 15000 rpm at 4° C., 10 min in a Sorvall RC 5B plus, SS-34 rotor. The supernatant was discarded, and the pellets were re-suspended in buffer, homogenized and centrifuged two more times. The final pellets were resuspended in the buffer mentioned above, and the protein concentration was measured and adjusted with buffer to 14 to 17 mg/ml and the membrane preparation were kept at −80° C. until assay. The assay was run directly on a dilution of this cell membrane suspension, without any further preparation. The BHK cell membranes are kept at −80° C. until assay, and the assay is run directly on a dilution of this cell membrane suspension, without further preparation. The suspension is diluted to give maximally 10% specific binding, i.e. to approx. 50-100 fold dilution. […] Test compounds were dissolved in DMSO and diluted in binding buffer. Radiolabelled ligand and membranes were diluted in binding buffer. The incubation was stopped by dilution with 2×100 μl ice-cold 0.9% NaCl. The radioactivity retained on the filters was counted using a Cobra II auto gamma counter.
# The data were analysed by non-linear regression analysis of binding curves, using the Windows™ program GraphPad™ Prism (GraphPad Software, USA).
row,Binder,Ki [nM]
1,Ac-EH[dF]RW[Orn][Hyp][Hyp]RDK(biscarboxymethyl)K(X2)-NH2 (lactam 1-6),3.25
2,B1,13
3,Ac-[Orn]H[dF]RWDPPHEK(biscarboxymethyl)K(X6)-NH2 (lactam 1-6),1.8
4,Ac-DH[dF]RW[Dab]PPRDK(biscarboxymethyl(4))K(X2)-NH2 (lactam 1-6),1.33
5,Ac-EH[dF]RW[Orn]PPHDK(biscarboxymethyl)K(X2)-NH2 (lactam 1-6),3.58
6,B2,107
7,Ac-DH[dF]RW[Orn]PPRDK(biscarboxymethyl(3))K([AEEA-Palmitoyl(16-(5-tetrazolyl))])-NH2 (lactam 1-6),33
8,B3,6.2
9,Ac-EH[dF]RW[Orn]PPRDK(biscarboxymethyl)K(X6)-NH2 (lactam 1-6),0.9
10,Ac-[hCys]H[dF]RWCSPHEK(bis(carboxymethyl))K([AEEA-C18 diacid])-NH2 (disulfide 1-6),0.55
11,Ac-[hCys]S[dF]RWCPPKEK(biscarboxymethyl″)K(X2)-NH2 (disulfide 1-6),10
12,Ac-[hCys]H[dF]RWCSPKEK(bis(carboxymethyl))K([AEEA-C16 diacid])-NH2 (disulfide 1-6),3.43
13,B4,0.64
14,Ac-EH[dF]RW[Orn]PPRDK(biscarboxymethyl)K(X2)-NH2 (lactam 1-6),1.42
15,Ac-[Orn]H[dF]RWDPSSSK(biscarboxymethyl)SSK(X3)-NH2 (lactam 1-6),1.2
16,Ac-[Dab]H[dF]RWDPSSSK(biscarboxymethyl(3))SS-X5 (lactam 1-6),10.8
17,B5,0.6
18,Ac-[Orn]H[dF]RWDPSSSK(bis(carboxymethyl))SSK([AEEA-C18 diacid])-NH2 (lactam 1-6),0.8
19,Ac-[Orn]H[dF]RWDPSSSK(bis(carboxymethyl))SSK([AEEA-Palmitoyl(16-(5-tetrazolyl))])-NH2 (lactam 1-6),0.9
20,Ac-[Orn]H[dF]RWDPPREK(biscarboxymethyl)K(X6)-NH2 (lactam 1-6),0.8
21,Ac-EH[dF]RW[Orn]PPRDK(biscarboxymethyl)K(X3)-NH2 (lactam 1-6),5.8
22,Ac-EH[dF]RW[Orn][dP][dP]RDK(biscarboxymethyl(3))K([AEEA-Palmitoyl(16-(5-tetrazolyl))])-NH2 (lactam 1-6),4.6
23,Ac-[Orn]H[dF]RWDPPREK(biscarboxymethyl)K(X2)-NH2 (lactam 1-6),0.33
24,Ac-[Orn]H[dF]RWEPPRDK(bis(carboxymethyl))K([AEEA-Palmitoyl(16-(5-tetrazolyl))])-NH2 (lactam 1-6),3.53
25,Ac-[Orn]H[dF]RWDPPHEK(biscarboxymethyl)K(X4)-NH2 (lactam 1-6),1.05
26,Ac-[Dab]H[dF]RWDPPRDK(biscarboxymethyl(3))K([AEEA-Palmitoyl(16-(5-tetrazolyl))])-NH2 (lactam 1-6),31
27,B6,8.95
28,Ac-EH[dF]RW[Dab]PPRDK(biscarboxymethyl(3))K([AEEA-Palmitoyl(16-(5-tetrazolyl))])-NH2 (lactam 1-6),39
